In publication PMC3154154:

What was measured:
[1] = molecular target: L19 IgG control antibody (unmodified, without linker) (human); experiment: SPR; Biacore T100; L19 IgG or modified versions immobilised on a CM5 chip treated with antibody capture kit; soluble Fc receptor fragments as analytes at 1.56 - 50 nM; association and dissociation kinetics used to calculate the dissociation constant
[2] = molecular target: L19 IgG-DnaEN after PTS (trans-spliced with DnaEC peptide without a probe) (human); experiment: as above
[3] = molecular target: L19 IgG-GyrA after EPL (cleaved with Mesna, cysteine as probe) (human); experiment: as above
[4] = molecular target: L19 IgG after EPL (L19 IgG-GyrA cleaved with Mesna and derivatized with cysteine) (human); experiment: SPR; Biacore T100; L19 IgG or modified versions immobilized on a CM5 chip treated with antibody capture kit; soluble Fc receptor fragments 1.56 - 50 nM as analytes; KD calculated from association and dissociation kinetics
[5] = molecular target: L19 IgG after PTS (L19 IgG-DnaEN trans-spliced with DnaEC peptide without a probe) (human); experiment: as above
L19 IgG after PTS (L19 IgG-DnaEN trans-spliced with DnaEC peptide without a probe) (human), sequence (heavy, as listed by the source, chain 1 of 2): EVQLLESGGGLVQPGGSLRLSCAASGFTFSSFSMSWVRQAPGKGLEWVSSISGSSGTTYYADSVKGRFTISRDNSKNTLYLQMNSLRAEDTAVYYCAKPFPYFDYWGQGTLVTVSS
L19 IgG after PTS (L19 IgG-DnaEN trans-spliced with DnaEC peptide without a probe) (human), sequence (light, as listed by the source, chain 2 of 2): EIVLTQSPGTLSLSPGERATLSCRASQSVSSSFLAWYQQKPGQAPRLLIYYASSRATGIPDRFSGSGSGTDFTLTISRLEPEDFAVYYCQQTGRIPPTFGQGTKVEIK

L19 IgG control antibody (unmodified, without linker) (human), sequence (heavy, as listed by the source, chain 1 of 2): as the sequence (heavy, as listed by the source, chain 1 of 2) above
L19 IgG control antibody (unmodified, without linker) (human), sequence (light, as listed by the source, chain 2 of 2): as the sequence (light, as listed by the source, chain 2 of 2) above
L19 IgG-DnaEN after PTS (trans-spliced with DnaEC peptide without a probe) (human), sequence (heavy, as listed by the source, chain 1 of 2): as the sequence (heavy, as listed by the source, chain 1 of 2) above
L19 IgG-DnaEN after PTS (trans-spliced with DnaEC peptide without a probe) (human), sequence (light, as listed by the source, chain 2 of 2): as the sequence (light, as listed by the source, chain 2 of 2) above
L19 IgG-GyrA after EPL (cleaved with Mesna, cysteine as probe) (human), sequence (heavy, as listed by the source, chain 1 of 2): as the sequence (heavy, as listed by the source, chain 1 of 2) above
L19 IgG-GyrA after EPL (cleaved with Mesna, cysteine as probe) (human), sequence (light, as listed by the source, chain 2 of 2): as the sequence (light, as listed by the source, chain 2 of 2) above
L19 IgG after EPL (L19 IgG-GyrA cleaved with Mesna and derivatized with cysteine) (human), sequence (heavy, as listed by the source, chain 1 of 2): as the sequence (heavy, as listed by the source, chain 1 of 2) above
L19 IgG after EPL (L19 IgG-GyrA cleaved with Mesna and derivatized with cysteine) (human), sequence (light, as listed by the source, chain 2 of 2): as the sequence (light, as listed by the source, chain 2 of 2) above

Row | Kd [1] [nM] | koff [1] [s⁻¹] | kon [1] [M⁻¹ s⁻¹] | Kd [2] [nM] | koff [2] [s⁻¹] | kon [2] [M⁻¹ s⁻¹] | Kd [3] [nM] | koff [3] [s⁻¹] | kon [3] [M⁻¹ s⁻¹] | Kd [4] [nM] | Kd [5] [nM] | Substance
1 | 0.17 | 0.000168 | 1.02e+06 | 0.21 | 0.000201 | 960000 | 0.13 | 0.000145 | 1.11e+06 | – | – | Fcγ RI/CD64, soluble Fc receptor fragment (from UniProt P12314 16-292)
2 | – | – | – | – | – | – | – | – | – | 60 | 60 | soluble Fc receptor fragment Fcγ RIIIA/CD16a (from UniProt P08637 17-208)
